The source of these data is patent publication US20130296247A1.

Common to all, as to assay: cell-based or functional assay
Experiment [1] addresses Nav1.2 sodium channel (rBIIa) (UniProt P04775).
The target of experiment [2] is human Nav1.7 sodium channel alpha subunit (human) (UniProt Q15858).
The target of experiment [3] is Nav1.2 sodium channel (rBIIa), P04775.

Chain of human Nav1.7 sodium channel alpha subunit (human) (Q15858 whole entry): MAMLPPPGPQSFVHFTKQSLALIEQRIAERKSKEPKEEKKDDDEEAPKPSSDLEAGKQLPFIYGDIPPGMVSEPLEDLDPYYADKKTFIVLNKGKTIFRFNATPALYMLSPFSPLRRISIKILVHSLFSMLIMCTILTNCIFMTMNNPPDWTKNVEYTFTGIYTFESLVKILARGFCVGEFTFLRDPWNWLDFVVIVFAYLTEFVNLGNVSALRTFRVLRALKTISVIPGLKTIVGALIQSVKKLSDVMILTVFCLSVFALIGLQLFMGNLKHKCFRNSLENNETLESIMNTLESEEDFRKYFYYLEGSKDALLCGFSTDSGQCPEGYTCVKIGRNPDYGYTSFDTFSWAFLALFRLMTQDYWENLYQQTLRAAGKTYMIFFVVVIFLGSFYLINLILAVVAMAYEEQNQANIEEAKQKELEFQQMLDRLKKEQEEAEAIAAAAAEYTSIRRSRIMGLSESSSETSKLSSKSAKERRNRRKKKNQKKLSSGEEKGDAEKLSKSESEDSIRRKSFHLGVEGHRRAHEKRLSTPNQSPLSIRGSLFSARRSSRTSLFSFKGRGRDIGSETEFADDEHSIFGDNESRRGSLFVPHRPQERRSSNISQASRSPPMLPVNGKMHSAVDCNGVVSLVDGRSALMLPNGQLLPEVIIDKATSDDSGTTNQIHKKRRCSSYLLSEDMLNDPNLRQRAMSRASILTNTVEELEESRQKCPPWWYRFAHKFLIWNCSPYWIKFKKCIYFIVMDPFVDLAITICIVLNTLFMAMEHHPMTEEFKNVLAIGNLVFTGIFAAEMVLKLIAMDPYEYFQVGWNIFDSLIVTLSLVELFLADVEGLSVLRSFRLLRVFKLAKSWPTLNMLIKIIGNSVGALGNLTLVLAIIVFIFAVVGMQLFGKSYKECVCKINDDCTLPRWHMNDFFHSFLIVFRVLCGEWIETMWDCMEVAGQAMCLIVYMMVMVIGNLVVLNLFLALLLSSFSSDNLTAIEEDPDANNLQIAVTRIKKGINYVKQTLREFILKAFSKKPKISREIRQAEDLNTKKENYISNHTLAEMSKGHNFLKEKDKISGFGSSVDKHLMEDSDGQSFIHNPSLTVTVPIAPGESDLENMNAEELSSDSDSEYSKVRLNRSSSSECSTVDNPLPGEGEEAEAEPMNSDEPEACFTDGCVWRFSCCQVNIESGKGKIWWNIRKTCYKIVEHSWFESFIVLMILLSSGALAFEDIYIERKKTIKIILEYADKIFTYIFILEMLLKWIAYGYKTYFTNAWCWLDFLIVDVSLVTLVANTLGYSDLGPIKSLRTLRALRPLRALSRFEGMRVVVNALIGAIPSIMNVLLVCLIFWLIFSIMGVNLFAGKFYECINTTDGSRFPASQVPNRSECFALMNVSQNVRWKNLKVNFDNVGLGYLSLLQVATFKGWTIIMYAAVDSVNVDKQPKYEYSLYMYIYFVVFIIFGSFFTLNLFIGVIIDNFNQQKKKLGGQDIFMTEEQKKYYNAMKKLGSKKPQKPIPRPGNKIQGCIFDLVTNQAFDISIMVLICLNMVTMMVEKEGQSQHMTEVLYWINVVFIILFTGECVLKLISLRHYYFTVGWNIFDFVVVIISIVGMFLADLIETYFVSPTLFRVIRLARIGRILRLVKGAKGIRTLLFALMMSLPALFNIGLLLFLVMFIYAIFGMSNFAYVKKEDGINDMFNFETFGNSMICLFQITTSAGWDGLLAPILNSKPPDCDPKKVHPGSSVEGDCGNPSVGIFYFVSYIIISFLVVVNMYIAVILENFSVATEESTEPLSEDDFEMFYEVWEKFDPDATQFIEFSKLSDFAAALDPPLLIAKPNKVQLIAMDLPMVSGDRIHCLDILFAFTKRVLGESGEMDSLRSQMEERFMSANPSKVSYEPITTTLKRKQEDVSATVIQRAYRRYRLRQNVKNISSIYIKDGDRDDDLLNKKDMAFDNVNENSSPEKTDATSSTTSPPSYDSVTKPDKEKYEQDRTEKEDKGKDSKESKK

In the case of GsMTx II/PaTX II (peptide), the IC50 Nav1.2 in experiment [1] was 2.7 µM. In experiment [2], this molecule showed an IC50 Nav1.7 of 0.26 µM.

For VsTx II (peptide), the IC50 Nav1.2 in experiment [1] was determined as 42.4 µM. The IC50 Nav1.7 in experiment [2] came to 9.26 µM.

Molecule GrTx I (peptide) came in with an IC50 Nav1.2 in experiment [1] of 2.69 µM. In experiment [2], this molecule showed an IC50 Nav1.7 of 1.01 µM.

In experiment [1], Phrixotoxin I (peptide) returned an IC50 Nav1.2 of 5 µM.

On to JzTx XII (peptide), for which the IC50 Nav1.2 in experiment [1] came to 73.9 µM.

In experiment [1], JzTx V (peptide) displayed an IC50 Nav1.2 of 0.157 µM. For the same molecule, the IC50 Nav1.7 in experiment [2] turned out to be 0.014 µM.

GsAF I (peptide): in experiment [1], the IC50 Nav1.2 was determined as 0.255 µM. The molecule also gave an IC50 Nav1.7 in experiment [2] of 0.249 µM.

GsAF II (peptide) gave an IC50 Nav1.2 in experiment [1] of 0.41 µM. Moreover, the IC50 Nav1.7 in experiment [2] stood at 0.07 µM.

B1: peptide of SEQ ID NO: 2 (peptide)
peptide: YCQKWMWTCDSERKCCEGMVCRLWCKKKLW
modifications: not checked
B1: the IC50 Nav1.2 in experiment [3] was determined as 0.008 µM.
